According to paper PMC9482650, “Quantitative fragmentomics allow affinity mapping of interactomes” (Nature Communications, 2022):

T1: MPP7, Q5T2T1
T1 sequence (Q5T2T1 134-230, limits assumed, looked up): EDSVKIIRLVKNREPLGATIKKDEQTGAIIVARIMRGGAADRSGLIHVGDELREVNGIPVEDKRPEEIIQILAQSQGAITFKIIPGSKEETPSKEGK

T2: MPDZ_12, O75970
T2 sequence (O75970 1857-1958, limits assumed, looked up): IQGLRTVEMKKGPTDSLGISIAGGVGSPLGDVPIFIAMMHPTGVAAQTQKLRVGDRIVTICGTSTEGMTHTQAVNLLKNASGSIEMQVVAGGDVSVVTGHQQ

T3: SNTG1, Q9NSN8
T3 sequence (Q9NSN8 52-150, limits assumed, looked up): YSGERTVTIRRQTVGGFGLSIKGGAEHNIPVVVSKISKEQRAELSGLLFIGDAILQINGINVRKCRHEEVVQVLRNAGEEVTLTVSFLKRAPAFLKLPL

T4: LNX2_2, Q8N448
T4 sequence (Q8N448 334-432, limits assumed, looked up): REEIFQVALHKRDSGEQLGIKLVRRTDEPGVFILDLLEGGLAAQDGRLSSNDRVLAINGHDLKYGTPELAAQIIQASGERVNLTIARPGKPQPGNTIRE

T5: APBA1_2, Q02410
T5 sequence (Q02410 742-832, limits assumed, looked up): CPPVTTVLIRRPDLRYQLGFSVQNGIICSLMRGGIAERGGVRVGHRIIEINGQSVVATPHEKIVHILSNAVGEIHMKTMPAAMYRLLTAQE

T6: APBA2_1, Q99767
T6 sequence (Q99767 563-664, limits assumed, looked up): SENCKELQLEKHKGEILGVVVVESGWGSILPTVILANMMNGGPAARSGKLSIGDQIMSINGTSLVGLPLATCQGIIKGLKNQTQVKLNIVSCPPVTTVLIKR

T7: GRIP1_7, Q9Y3R0
T7 sequence (Q9Y3R0 999-1096, limits assumed, looked up): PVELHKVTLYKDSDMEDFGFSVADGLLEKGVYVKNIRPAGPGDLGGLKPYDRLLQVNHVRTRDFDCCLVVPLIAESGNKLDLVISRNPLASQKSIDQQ

T8: HTRA4, P83105
T8 sequence (P83105 378-476, limits assumed, looked up): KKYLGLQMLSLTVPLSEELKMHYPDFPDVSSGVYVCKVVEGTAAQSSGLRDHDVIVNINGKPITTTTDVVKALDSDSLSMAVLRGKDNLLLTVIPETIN

T9: DVL3, Q92997
T9 sequence (Q92997 244-331, limits assumed, looked up): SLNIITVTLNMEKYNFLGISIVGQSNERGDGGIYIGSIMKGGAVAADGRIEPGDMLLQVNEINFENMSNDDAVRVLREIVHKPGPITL

T10: NHERF3_3, Q5T2W1
T10 sequence (Q5T2W1 238-333, limits assumed, looked up): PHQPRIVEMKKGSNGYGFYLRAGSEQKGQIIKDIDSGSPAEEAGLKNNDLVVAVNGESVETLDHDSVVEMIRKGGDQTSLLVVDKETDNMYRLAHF

T11: TIAM2, Q8IVF5
T11 sequence (Q8IVF5 885-986, limits assumed, looked up): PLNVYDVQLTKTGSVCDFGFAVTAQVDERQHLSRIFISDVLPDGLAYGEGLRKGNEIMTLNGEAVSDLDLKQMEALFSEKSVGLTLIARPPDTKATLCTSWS

T12: MPP2, Q14168
T12 sequence (Q14168 180-250, limits assumed, looked up): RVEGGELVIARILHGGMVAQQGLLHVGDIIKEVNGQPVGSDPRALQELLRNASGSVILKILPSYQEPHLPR

T13: PDZD7_3, Q9H5P4
T13 sequence (Q9H5P4 857-944, limits assumed, looked up): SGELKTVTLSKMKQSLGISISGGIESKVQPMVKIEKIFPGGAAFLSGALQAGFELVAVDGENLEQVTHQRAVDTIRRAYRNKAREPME

T14: ARHGEF11, O15085
T14 sequence (O15085 42-136, limits assumed, looked up): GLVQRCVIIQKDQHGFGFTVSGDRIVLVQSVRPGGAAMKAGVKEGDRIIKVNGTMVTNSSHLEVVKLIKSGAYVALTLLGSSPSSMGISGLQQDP


Key:
Assay in all cases: holdup assay
Set-up in all cases: key: below the threshold = too weak to quantify, mostly under pKd 3.1 to 4
Settings in all cases: plain residues with an end cap or a label only (N-terminal biotin on a linker: ado-ado)
Inadl_3, Q8NI35 = target: Inadl_3, Q8NI35
MPP7, Q5T2T1 = target: T1, MPP7, Q5T2T1
LIMK2, P53671 = target: LIMK2, P53671
MPDZ_12, O75970 = target: T2, MPDZ_12, O75970
SNTG1, Q9NSN8 = target: T3, SNTG1, Q9NSN8
SCRIB_1, Q14160 = target: SCRIB_1, Q14160
DLG5_1, Q8TDM6 = target: DLG5_1, Q8TDM6
LNX2_2, Q8N448 = target: T4, LNX2_2, Q8N448
APBA1_2, Q02410 = target: T5, APBA1_2, Q02410
APBA2_1, Q99767 = target: T6, APBA2_1, Q99767
GRIP1_7, Q9Y3R0 = target: T7, GRIP1_7, Q9Y3R0
HTRA2, O43464 = target: HTRA2, O43464
HTRA4, P83105 = target: T8, HTRA4, P83105
DVL3, Q92997 = target: T9, DVL3, Q92997
NHERF3_3, Q5T2W1 = target: T10, NHERF3_3, Q5T2W1
TIAM2, Q8IVF5 = target: T11, TIAM2, Q8IVF5
MPP2, Q14168 = target: T12, MPP2, Q14168
ARHGEF12, Q9NZN5-2 = target: ARHGEF12, Q9NZN5-2
TJP1_2, Q07157 = target: TJP1_2, Q07157
PDZD7_3, Q9H5P4 = target: T13, PDZD7_3, Q9H5P4
GRIP2_3, Q9C0E4 = target: GRIP2_3, Q9C0E4
ARHGEF11, O15085 = target: T14, ARHGEF11, O15085
MAST2, Q6P0Q8 = target: MAST2, Q6P0Q8
GOPC, Q9HD26 = target: GOPC, Q9HD26

Chain of MAST2, Q6P0Q8 (Q6P0Q8 1099-1202): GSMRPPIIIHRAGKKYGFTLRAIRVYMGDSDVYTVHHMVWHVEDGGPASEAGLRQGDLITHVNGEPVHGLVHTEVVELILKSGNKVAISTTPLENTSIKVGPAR
Chain of TJP1_2, Q07157 (Q07157 181-274): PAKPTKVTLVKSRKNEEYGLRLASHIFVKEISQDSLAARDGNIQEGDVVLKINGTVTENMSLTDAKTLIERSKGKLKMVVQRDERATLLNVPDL
Chain of ARHGEF12, Q9NZN5-2 (Q9NZN5 other isoform, or with tags, fused parts or gaps): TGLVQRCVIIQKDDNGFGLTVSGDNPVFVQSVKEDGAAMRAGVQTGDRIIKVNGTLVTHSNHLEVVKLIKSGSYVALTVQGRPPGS
Chain of GRIP2_3, Q9C0E4 (Q9C0E4 238-339): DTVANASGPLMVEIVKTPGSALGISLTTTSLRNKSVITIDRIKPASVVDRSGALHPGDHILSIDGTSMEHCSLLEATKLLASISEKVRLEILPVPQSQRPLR
Chain of HTRA2, O43464 (O43464 355-458): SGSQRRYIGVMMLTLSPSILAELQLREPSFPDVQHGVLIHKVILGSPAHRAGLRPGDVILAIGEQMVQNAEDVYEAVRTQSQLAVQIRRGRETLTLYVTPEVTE
Chain of DLG5_1, Q8TDM6 (Q8TDM6 617-713): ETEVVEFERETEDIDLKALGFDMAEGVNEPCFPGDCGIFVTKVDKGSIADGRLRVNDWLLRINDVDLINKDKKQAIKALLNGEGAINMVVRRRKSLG
Chain of Inadl_3, Q8NI35 (Q8NI35 359-469): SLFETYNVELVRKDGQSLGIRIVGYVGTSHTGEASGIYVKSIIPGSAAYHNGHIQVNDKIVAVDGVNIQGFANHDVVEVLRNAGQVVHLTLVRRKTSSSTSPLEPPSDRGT
Chain of LIMK2, P53671 (P53671 143-248): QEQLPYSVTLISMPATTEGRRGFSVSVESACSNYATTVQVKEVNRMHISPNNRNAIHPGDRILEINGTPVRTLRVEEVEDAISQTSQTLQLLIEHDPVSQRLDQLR
Chain of SCRIB_1, Q14160 (Q14160 718-814): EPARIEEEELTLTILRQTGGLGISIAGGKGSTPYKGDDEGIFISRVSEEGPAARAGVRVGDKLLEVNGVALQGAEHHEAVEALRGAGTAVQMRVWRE

pKd (Inadl_3, Q8NI35) | pKd (MPP7, Q5T2T1) | pKd (LIMK2, P53671) | pKd (MPDZ_12, O75970) | pKd (SNTG1, Q9NSN8) | pKd (SCRIB_1, Q14160) | pKd (DLG5_1, Q8TDM6) | pKd (LNX2_2, Q8N448) | pKd (APBA1_2, Q02410) | pKd (APBA2_1, Q99767) | pKd (GRIP1_7, Q9Y3R0) | pKd (HTRA2, O43464) | pKd (HTRA4, P83105) | pKd (DVL3, Q92997) | pKd (NHERF3_3, Q5T2W1) | pKd (TIAM2, Q8IVF5) | pKd (MPP2, Q14168) | pKd (ARHGEF12, Q9NZN5-2) | pKd (TJP1_2, Q07157) | pKd (PDZD7_3, Q9H5P4) | further results | Binder
below the threshold | below the threshold | below the threshold | below the threshold | 3.62 | 4.17 | below the threshold | 4.9 | 3.92 | below the threshold | below the threshold | below the threshold | 4.06 | below the threshold | below the threshold | below the threshold | below the threshold | 4.68 | below the threshold | 4.68 | pKd (GRIP2_3, Q9C0E4): below the threshold; pKd (ARHGEF11, O15085): 4.45; pKd (MAST2, Q6P0Q8): 5.3; pKd (GOPC, Q9HD26): 4.07 | SAKVRTVTSV [RASL11B, Q9BPW5]
below the threshold | below the threshold | below the threshold | below the threshold | below the threshold | below the threshold | below the threshold | 4.07 | 4.09 | below the threshold | 3.87 | below the threshold | below the threshold | below the threshold | below the threshold | below the threshold | below the threshold | below the threshold | below the threshold | below the threshold | pKd (GRIP2_3, Q9C0E4): below the threshold; pKd (ARHGEF11, O15085): below the threshold; pKd (MAST2, Q6P0Q8): 3.84; pKd (GOPC, Q9HD26): below the threshold | PAPSSGKDYV [CLDN1, O95832]
below the threshold | below the threshold | below the threshold | below the threshold | below the threshold | below the threshold | below the threshold | below the threshold | below the threshold | below the threshold | below the threshold | below the threshold | 3.8 | below the threshold | below the threshold | below the threshold | below the threshold | below the threshold | below the threshold | below the threshold | pKd (GRIP2_3, Q9C0E4): below the threshold; pKd (ARHGEF11, O15085): 3.7; pKd (MAST2, Q6P0Q8): 4.7; pKd (GOPC, Q9HD26): below the threshold | DTTVPESEDL [MYOZ2, Q9NPC6]
4.11 | below the threshold | below the threshold | below the threshold | 4.68 | 4.68 | below the threshold | 5.08 | 4.32 | below the threshold | 3.51 | below the threshold | 4.36 | below the threshold | below the threshold | below the threshold | below the threshold | 4.77 | below the threshold | 5.09 | pKd (GRIP2_3, Q9C0E4): below the threshold; pKd (ARHGEF11, O15085): 5.09; pKd (MAST2, Q6P0Q8): 5.28; pKd (GOPC, Q9HD26): 4.04 | PDGQCTVTEV [RNF146, Q9NTX7]
below the threshold | below the threshold | below the threshold | below the threshold | below the threshold | below the threshold | below the threshold | below the threshold | below the threshold | below the threshold | below the threshold | below the threshold | below the threshold | below the threshold | below the threshold | 4.02 | below the threshold | below the threshold | below the threshold | below the threshold | pKd (GRIP2_3, Q9C0E4): below the threshold; pKd (ARHGEF11, O15085): below the threshold; pKd (MAST2, Q6P0Q8): below the threshold; pKd (GOPC, Q9HD26): below the threshold | NHSSSPETTA [TRMT13, Q9NUP7]
3.72 | 3.57 | below the threshold | below the threshold | 5.53 | 4.54 | 3.7 | 3.98 | 4.33 | below the threshold | 3.48 | below the threshold | below the threshold | 3.59 | below the threshold | below the threshold | below the threshold | 3.94 | 3.52 | 4.82 | pKd (GRIP2_3, Q9C0E4): below the threshold; pKd (ARHGEF11, O15085): 4.79; pKd (MAST2, Q6P0Q8): 5.5; pKd (GOPC, Q9HD26): 4.22 | EVEEFPETSV [TRPV3, Q8NET8]
